The values below are quoted from earlier work in patent US20220017621A1, “Combination Therapy for Cancer” (Merck Patent GmbH, priority 2016, published 2022).

One may read the Kd as the free concentration of one partner at which half of the binding sites on the other are occupied at equilibrium, for simple one-to-one binding.

This data set concerns the target TGFβ1 (Homo sapiens, UniProt P01137). The settings on record: binding of TGFβ1.

TGFβ1, sequence (P01137 279-390 limits assumed, species assumed): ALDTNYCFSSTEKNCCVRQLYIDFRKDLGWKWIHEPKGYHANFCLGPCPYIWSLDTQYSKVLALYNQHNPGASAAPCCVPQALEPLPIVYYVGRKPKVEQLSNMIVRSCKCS

B1: recombinant soluble TGFβRII: recombinant soluble extracellular domain of TGFβRII, from the literature (Lin et al.) (protein, UniProt P37173 23-166, looked up)
extracellular domain: TIPPHVQKSVNNDMIVTDNNGAVKFPQLCKFCDVRFSTCDNQKSCMSNCSITSICEKPQEVCVAVWRKNDENITLETVCHDPKLPYHDFILEDAASPKCIMKEKKKPGETFFMCSCSSDECNDNIIFSEEYNTSNPDLLLVIFQ
modifications: extracellular domain
On to B1, for which the Kd was 0.2 nM.
